Assay results: article doi:10.1101/2020.10.21.349480 (2020)

Tests used:
[1] = molecular target: T1, human collagen III (human, UniProt P02461 154-1221); experiment: BLI; apparent KD (avidity), analysis by molarity
T1 chain: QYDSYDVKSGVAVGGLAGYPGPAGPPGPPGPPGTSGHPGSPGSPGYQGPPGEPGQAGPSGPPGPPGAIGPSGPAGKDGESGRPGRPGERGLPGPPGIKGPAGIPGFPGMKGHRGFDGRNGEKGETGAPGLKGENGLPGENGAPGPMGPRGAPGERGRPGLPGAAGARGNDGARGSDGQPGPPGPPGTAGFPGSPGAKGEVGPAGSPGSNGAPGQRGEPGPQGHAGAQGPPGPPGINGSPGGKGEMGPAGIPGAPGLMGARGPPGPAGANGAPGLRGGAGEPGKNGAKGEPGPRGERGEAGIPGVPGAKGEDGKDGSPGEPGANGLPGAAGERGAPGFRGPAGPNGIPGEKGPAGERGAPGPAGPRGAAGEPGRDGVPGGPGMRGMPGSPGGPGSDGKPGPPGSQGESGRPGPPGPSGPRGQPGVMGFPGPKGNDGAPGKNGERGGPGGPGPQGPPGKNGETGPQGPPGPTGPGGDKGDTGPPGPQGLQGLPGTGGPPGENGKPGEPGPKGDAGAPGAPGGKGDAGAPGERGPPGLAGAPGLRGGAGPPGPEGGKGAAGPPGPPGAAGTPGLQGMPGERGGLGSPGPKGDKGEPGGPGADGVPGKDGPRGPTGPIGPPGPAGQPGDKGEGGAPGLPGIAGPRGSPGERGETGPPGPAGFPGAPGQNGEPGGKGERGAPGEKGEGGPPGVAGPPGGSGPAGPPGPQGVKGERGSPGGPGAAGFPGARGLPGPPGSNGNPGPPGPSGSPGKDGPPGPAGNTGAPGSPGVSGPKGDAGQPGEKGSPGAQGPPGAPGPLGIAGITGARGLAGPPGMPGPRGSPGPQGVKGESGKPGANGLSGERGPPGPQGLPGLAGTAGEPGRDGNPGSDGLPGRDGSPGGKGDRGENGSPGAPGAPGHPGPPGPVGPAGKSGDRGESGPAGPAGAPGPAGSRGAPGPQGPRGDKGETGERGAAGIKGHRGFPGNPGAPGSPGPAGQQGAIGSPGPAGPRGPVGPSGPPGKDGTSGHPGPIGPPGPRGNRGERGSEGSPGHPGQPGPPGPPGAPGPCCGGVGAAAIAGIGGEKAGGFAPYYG

[2] = molecular target: T2, rat collagen I (rat, UniProt P02454 152-1207; P02466 86-1125); experiment: BLI; apparent KD (avidity), analysis by molarity
[3] = molecular target: T3, human collagen I (human, UniProt P02452 162-1218; P08123 80-1119); experiment: BLI; apparent KD (avidity), analysis by molarity
[4] = molecular target: T4, mouse collagen I (mouse, UniProt P11087 152-1207; Q01149 86-1125); experiment: BLI; apparent KD (avidity), analysis by molarity
[5] = molecular target: T5, rat collagen III (rat, UniProt P13941 155-1218); experiment: BLI; apparent KD (avidity), analysis by molarity
T5 chain: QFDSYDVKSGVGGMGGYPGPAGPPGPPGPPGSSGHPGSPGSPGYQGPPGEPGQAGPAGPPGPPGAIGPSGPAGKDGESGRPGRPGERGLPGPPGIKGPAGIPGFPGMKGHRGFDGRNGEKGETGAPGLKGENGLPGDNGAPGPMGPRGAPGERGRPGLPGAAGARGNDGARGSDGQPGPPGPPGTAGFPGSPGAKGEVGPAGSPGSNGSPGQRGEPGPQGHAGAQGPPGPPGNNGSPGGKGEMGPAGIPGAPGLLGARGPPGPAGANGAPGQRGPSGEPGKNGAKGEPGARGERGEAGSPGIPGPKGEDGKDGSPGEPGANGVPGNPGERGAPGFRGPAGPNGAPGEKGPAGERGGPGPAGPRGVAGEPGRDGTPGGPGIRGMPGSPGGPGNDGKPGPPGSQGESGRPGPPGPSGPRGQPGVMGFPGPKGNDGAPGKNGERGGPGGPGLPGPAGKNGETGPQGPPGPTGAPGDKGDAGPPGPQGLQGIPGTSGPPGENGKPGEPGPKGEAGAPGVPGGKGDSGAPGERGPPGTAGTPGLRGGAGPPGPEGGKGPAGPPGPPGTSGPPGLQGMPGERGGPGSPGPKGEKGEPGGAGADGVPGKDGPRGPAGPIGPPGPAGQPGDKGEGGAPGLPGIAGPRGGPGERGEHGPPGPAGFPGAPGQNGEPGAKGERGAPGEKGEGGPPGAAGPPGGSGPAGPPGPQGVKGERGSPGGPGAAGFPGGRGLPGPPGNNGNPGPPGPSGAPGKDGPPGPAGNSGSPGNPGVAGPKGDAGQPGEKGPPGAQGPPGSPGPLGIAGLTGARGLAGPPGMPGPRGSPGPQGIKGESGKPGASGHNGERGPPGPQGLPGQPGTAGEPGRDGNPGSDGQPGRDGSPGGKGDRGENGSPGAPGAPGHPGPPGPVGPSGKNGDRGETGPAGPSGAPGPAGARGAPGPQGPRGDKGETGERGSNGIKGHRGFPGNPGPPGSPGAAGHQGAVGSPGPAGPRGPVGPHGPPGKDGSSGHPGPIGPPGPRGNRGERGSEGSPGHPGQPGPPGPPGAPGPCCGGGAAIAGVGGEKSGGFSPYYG

[6] = molecular target: T1, human collagen III; experiment: BLI; analysis by binding sites/mol
[7] = molecular target: T2, rat collagen I; experiment: BLI; analysis by binding sites/mol
[8] = molecular target: T3, human collagen I; experiment: BLI; analysis by binding sites/mol
[9] = molecular target: T4, mouse collagen I; experiment: BLI; analysis by binding sites/mol
[10] = molecular target: T5, rat collagen III; experiment: BLI; analysis by binding sites/mol
[11] = molecular target: T1, human collagen III; experiment: BLI; analysis by molarity
[12] = molecular target: T2, rat collagen I; experiment: BLI; analysis by molarity
[13] = molecular target: T3, human collagen I; experiment: BLI; analysis by molarity
[14] = molecular target: T4, mouse collagen I; experiment: BLI; analysis by molarity
[15] = molecular target: T5, rat collagen III; experiment: BLI; analysis by molarity
[16] = molecular target: T1, human collagen III; experiment: BLI; apparent KD, analysis by binding sites/mol
[17] = molecular target: T2, rat collagen I; experiment: BLI; apparent KD, analysis by binding sites/mol
[18] = molecular target: T3, human collagen I; experiment: BLI; apparent KD, analysis by binding sites/mol
[19] = molecular target: T4, mouse collagen I; experiment: BLI; apparent KD, analysis by binding sites/mol
[20] = molecular target: T5, rat collagen III; experiment: BLI; apparent KD, analysis by binding sites/mol

T4 sequence (P11087 152-1207, chain 1 of 2): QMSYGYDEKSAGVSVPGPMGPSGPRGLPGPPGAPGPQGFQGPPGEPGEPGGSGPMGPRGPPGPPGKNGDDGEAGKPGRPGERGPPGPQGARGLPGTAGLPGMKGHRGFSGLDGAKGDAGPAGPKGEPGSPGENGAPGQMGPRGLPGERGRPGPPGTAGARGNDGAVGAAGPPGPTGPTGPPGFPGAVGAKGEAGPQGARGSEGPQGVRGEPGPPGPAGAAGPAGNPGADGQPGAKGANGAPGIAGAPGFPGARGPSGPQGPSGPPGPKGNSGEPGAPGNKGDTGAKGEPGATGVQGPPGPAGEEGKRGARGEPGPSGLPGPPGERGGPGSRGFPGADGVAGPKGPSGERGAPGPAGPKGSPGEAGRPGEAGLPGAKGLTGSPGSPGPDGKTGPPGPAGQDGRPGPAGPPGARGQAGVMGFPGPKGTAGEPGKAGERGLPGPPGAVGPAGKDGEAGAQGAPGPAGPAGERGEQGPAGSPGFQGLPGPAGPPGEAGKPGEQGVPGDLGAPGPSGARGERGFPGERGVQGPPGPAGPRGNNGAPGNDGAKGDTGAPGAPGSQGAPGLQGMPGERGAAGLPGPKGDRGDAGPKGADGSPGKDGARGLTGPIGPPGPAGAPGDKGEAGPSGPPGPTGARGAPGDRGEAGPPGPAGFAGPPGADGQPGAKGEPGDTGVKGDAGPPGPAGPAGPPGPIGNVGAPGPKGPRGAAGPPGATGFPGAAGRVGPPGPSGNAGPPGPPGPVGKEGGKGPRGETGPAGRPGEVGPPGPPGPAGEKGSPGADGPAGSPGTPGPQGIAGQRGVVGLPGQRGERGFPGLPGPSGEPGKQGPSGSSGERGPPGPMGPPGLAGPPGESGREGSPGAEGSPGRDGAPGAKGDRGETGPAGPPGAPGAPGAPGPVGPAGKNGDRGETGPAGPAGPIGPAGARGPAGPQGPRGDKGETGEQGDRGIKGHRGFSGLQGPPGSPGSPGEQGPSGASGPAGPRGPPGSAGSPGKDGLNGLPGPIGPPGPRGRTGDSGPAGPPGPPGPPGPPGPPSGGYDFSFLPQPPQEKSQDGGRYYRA
T4 sequence (Q01149 86-1125, chain 2 of 2): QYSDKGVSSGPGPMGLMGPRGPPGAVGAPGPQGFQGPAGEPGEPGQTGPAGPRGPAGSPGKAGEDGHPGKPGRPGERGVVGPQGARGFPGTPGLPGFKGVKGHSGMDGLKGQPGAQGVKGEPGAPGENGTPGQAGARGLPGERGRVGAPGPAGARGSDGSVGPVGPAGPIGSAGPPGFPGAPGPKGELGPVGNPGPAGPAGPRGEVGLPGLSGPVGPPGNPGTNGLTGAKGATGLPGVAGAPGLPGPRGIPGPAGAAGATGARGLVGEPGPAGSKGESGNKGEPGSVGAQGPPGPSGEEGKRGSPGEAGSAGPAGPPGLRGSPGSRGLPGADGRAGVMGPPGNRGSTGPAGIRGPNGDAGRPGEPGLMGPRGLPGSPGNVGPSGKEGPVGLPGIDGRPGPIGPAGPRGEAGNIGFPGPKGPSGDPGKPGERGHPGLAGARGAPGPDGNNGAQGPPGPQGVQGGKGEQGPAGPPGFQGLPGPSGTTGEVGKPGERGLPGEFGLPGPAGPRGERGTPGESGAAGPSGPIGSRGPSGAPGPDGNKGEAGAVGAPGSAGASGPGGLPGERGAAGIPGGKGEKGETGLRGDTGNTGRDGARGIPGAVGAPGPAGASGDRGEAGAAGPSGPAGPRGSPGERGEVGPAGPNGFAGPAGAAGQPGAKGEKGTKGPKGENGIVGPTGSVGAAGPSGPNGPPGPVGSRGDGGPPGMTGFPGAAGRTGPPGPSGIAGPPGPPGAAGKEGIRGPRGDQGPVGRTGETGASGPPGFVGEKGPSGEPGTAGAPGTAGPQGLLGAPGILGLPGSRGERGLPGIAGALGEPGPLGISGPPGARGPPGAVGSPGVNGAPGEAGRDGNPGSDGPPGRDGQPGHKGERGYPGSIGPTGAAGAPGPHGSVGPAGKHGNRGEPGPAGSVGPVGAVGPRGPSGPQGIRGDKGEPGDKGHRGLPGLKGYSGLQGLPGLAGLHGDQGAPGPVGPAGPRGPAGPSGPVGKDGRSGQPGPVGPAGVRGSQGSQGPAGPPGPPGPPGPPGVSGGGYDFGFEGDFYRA
T3 sequence (P02452 162-1218, chain 1 of 2): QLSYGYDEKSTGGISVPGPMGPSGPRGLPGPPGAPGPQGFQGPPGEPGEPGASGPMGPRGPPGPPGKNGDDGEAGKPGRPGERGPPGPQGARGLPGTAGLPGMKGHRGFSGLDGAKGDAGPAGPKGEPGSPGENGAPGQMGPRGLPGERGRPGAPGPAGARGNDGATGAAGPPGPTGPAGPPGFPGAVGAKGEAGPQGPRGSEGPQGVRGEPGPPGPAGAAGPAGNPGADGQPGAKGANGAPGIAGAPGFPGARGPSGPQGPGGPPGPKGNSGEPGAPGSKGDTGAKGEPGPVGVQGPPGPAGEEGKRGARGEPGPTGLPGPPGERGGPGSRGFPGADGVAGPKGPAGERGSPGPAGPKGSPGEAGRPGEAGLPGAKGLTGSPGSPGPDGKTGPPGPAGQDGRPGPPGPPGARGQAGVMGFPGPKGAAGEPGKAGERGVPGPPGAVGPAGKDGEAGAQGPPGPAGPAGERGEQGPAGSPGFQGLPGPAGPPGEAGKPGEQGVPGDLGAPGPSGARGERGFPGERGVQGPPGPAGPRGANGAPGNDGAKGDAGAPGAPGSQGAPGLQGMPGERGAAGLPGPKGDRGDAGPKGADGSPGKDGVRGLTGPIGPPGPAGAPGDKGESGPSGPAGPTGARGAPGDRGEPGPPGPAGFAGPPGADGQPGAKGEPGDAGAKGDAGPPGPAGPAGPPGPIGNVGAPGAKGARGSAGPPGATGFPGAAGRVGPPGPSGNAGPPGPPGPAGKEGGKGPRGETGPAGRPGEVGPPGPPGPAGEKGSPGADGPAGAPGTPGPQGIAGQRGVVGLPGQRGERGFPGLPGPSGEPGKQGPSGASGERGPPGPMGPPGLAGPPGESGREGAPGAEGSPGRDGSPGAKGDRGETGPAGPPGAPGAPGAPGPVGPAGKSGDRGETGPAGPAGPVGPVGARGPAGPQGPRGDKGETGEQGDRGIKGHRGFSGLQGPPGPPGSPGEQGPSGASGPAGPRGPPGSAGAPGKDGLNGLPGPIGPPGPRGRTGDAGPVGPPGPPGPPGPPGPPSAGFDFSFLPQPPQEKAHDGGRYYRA
T3 sequence (P08123 80-1119, chain 2 of 2): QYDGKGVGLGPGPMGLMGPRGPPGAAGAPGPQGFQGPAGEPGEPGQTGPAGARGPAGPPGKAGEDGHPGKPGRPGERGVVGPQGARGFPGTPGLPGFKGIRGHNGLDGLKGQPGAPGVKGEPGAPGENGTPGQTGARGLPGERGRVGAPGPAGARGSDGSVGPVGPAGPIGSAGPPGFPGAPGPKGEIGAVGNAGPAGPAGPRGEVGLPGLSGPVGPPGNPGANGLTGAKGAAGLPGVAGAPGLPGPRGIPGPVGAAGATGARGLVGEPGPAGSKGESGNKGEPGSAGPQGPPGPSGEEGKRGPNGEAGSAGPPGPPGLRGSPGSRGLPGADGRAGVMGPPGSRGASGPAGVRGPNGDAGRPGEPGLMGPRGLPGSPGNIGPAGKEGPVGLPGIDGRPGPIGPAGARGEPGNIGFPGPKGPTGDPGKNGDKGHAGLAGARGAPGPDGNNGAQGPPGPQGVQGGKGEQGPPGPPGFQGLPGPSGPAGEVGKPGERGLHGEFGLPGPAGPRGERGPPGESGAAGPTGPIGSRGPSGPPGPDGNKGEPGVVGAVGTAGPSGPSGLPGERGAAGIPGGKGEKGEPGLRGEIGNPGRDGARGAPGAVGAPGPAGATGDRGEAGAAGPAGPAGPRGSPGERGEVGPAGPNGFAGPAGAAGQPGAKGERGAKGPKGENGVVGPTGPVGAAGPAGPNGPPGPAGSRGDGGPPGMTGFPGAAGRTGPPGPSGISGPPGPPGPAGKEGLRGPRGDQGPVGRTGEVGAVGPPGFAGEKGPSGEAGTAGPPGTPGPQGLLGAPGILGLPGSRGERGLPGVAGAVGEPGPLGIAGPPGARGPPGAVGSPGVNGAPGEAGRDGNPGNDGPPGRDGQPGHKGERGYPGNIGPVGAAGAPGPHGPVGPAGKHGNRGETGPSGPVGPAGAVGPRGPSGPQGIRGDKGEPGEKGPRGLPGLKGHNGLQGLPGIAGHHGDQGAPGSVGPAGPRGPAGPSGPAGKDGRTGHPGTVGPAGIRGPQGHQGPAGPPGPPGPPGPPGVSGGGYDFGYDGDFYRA

B1: NC410, LAIR-2 human IgG1 Fc fusion protein (Fc fusion)
chain: QEGALPRPSISAEPGTVISPGSHVTFMCRGPVGVQTFRLEREDRAKYKDSYNVFRLGPSESEARFHIDSVSEGNAGLYRCLYYKPPGWSEHSDFLELLVKESSGGPDSPDTEPGSSAGTVPGTEASGFDAP
Q: With B1 as the binder, how does the Kd [1] read?
A: 0.51 nM

Q: What about the Kd [2] of the same binder?
A: 0.0387 nM

Q: And the Kd [3]?
A: 0.126 nM

Q: What about the Kd [4] of the same binder?
A: 0.0918 nM

Q: And the Kd [5]?
A: 0.878 nM

Q: What about the koff [6] of the same binder?
A: 0.000241 s⁻¹

Q: And the koff [7]?
A: 0.000241 s⁻¹

Q: And the koff [8]?
A: 0.000184 s⁻¹

Q: And the koff [9]?
A: 0.000194 s⁻¹

Q: And the koff [10]?
A: 0.000432 s⁻¹

Q: What about the koff [11] of the same binder?
A: 0.000241 s⁻¹

Q: And the koff [12]?
A: 0.000241 s⁻¹

Q: And the koff [13]?
A: 0.000186 s⁻¹

Q: What about the koff [14] of the same binder?
A: 0.000194 s⁻¹

Q: What about the koff [15] of the same binder?
A: 0.000433 s⁻¹

Q: And the Kd [16]?
A: 47 nM

Q: What about the Kd [17] of the same binder?
A: 3.74 nM

Q: And the Kd [18]?
A: 17.2 nM

Q: And the Kd [19]?
A: 12.5 nM

Q: And the Kd [20]?
A: 115 nM
